Measured values reported in patent US20190023791A1 (GlaxoSmithKline, published 2019).
Where “and” joins values, the source holds several entries; their conditions need not be identical. Identical values can stand only once.

How the values were obtained:
[1] = biological target: T1, human OX40 on cells (activated human CD4+ T cells, stimulated PBMC, lymphocytes in whole blood) (human, UniProt P43489 29-277); assay: binding to stimulated human PBMC; stimulated human PBMC; upper end of range
T1 construct: whole, on cells; also called cell-surface OX40; human OX40 receptor on CD4+ T cells
T1 sequence (looked up): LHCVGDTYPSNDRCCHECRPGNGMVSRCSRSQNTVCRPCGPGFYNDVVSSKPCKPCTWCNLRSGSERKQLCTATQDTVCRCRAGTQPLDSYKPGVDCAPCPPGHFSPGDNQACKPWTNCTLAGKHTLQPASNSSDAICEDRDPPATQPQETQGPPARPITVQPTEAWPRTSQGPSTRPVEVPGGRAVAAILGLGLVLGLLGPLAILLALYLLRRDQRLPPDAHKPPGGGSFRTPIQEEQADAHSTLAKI

[2] = biological target: T1, human OX40 on cells (activated human …); assay: binding to activated human CD4+ T cells; activated human CD4+ T cells
[3] = biological target: T1, human OX40 on cells (activated human …); assay: binding to stimulated human PBMC; stimulated human PBMC; lower end of range
[4] = biological target: T2, cynomolgus monkey OX40 on cells (activated cynomolgus monkey CD4+ T cells, OX40+ cells in peripheral blood) (cynomolgus monkey); assay: cell-based or functional assay
[5] = biological target: T1, human OX40 on cells (activated human …); assay: cell-based or functional assay
[6] = biological target: T3, recombinant OX40 extracellular domain from cynomolgus monkeys (cynomolgus monkey); assay: binding to recombinant OX40 extracellular domain, method not stated
T3 construct: extracellular domain; also called cynomolgus monkey OX40

[7] = biological target: T4, recombinant OX40 extracellular domain from humans (human, UniProt P43489 29-214); assay: binding to recombinant OX40 extracellular domain, method not stated; recombinant human OX40 extracellular domain
T4 construct: extracellular domain; also called human OX40; hOX40
T4 sequence (looked up): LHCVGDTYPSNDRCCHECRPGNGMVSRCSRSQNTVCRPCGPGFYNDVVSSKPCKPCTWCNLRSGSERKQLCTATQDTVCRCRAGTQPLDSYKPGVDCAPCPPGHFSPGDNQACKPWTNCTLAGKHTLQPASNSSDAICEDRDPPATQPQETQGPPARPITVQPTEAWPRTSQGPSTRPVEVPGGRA

[8] = biological target: T1, human OX40 on cells (activated human …); assay: unstimulated human whole-blood binding assay, lymphocytes
[9] = biological target: T2, cynomolgus monkey OX40 on cells …; assay: binding to activated cynomolgus monkey CD4+ T cells; activated cynomolgus monkey CD4+ T cells

- EC50 [1]: ≤ 0.3 µg/mL
- EC50 [2]: 0.3 µg/mL
- EC50 [3]: ≥ 0.1 µg/mL
- proliferation of immobilized anti-CD3 activated cynomolgus monkey CD4+ T cells, mean EC50 [4]: 0.72 µg/mL and 4.8 nM
- anti-CD3 induced proliferation of activated human CD4+ T cells, mean EC50 [5]: 0.19 µg/mL and 1.3 nM
- Kd [6]: 408 nM
- Kd [7]: 4.9 nM
- EC50 [8]: 1.45 µg/mL
- EC50 [9]: 0.35 µg/mL
B1: ANTIBODY 106-222 (antibody, human IgG1, kappa, V domains shown)
VH: QVQLVQSGSELKKPGASVKVSCKASGYTFTDYSMHWVRQAPGQGLKWMGWINTETGEPTYADDFKGRFVFSLDTSVSTAYLQISSLKAEDTAVYYCANPYYDYVSYYAMDYWGQGTTVTVSS
VL: DIQMTQSPSSLSASVGDRVTITCKASQDVSTAVAWYQQKPGKAPKLLIYSASYLYTGVPSRFSGSGSGTDFTFTISSLQPEDIATYYCQQHYSTPRTFGQGTKLEIKR
notes: also called humanized wild-type IgG1 anti-OX40 agonistic mAb
